Measurements taken from the supplement of paper PMC6755084.

Each sequence was assayed on F1*sub RNA substrate (template-directed ligation) (assay: fraction ligated after 30 min (ligated reads / total reads); higher = more ligase activity; sequences stand for … in GAGACCGCAACTGAAAAGTTGT…AGTTCTGCACGTAGAAGCAAAAGGC). Details: 42 °C.
Protocol: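 Chip-synthesised pool of F1* ligase ribozyme variants (all single and double substitutions, single, double and triple deletions in the catalytic core and GAA bulge, plus designed variants) was transcribed with T7 and reacted as a pool with excess substrate F1*sub for 30 min at 42 C in 50 mM EPPS pH 8.5, 25 mM MgCl2. Ligated and unligated bands were separated by PAGE, barcoded by RT and deep sequenced; fraction ligated = ligated reads / total reads per variant, relative activity = FL / FL of wild type (0.826). Sequences are the DNA template of the ribozyme.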

Sequence | fraction ligated
ATCACTTGTCGTAAGAACTTTGGAGGGTTGA [3d235] | 0.0738
ATCACTTGTCGTAAGAACTTTGGATGGGTTA [3d237] | 0.351
ATCACTTGTCGTAAGAACTTTGGATGGGTTG [3d238] | 0.794
ATCACTTGTCGTAAGAACTTTGGATGGGTTGA [2d15] | 0.821
ATCACTTGTCGTAAGAACTTTGGATGGTTGA [3d236] | 0.273
ATCACTTGTCGTAAGAACTTTGGTGGGTTGA [3d234] | 0.0239
ATCACTTGTCGTAAGAATTTGGATGGGTTGA [3d231] | 0.757
ATCACTTGTCGTAAGACACTGGATGGGTTGA [3d253] | 0.701
ATCACTTGTCGTAAGACACTTGATGGGTTGA [3d254] | 0.164
ATCACTTGTCGTAAGACACTTGGAGGGTTGA [3d256] | 0.0205
ATCACTTGTCGTAAGACACTTGGATGGGTTA [3d258] | 0.214
ATCACTTGTCGTAAGACACTTGGATGGGTTG [3d259] | 0.687
ATCACTTGTCGTAAGACACTTGGATGGGTTGA [2d18] | 0.761
ATCACTTGTCGTAAGACACTTGGATGGTTGA [3d257] | 0.216
ATCACTTGTCGTAAGACACTTGGTGGGTTGA [3d255] | 0.00771
ATCACTTGTCGTAAGACACTTTATGGGTTGA [3d260] | 0.0125
ATCACTTGTCGTAAGACACTTTGAGGGTTGA [3d262] | 0.0273
ATCACTTGTCGTAAGACACTTTGATGGGTTA [3d264] | 0.0628
ATCACTTGTCGTAAGACACTTTGATGGGTTG [3d265] | 0.518
ATCACTTGTCGTAAGACACTTTGATGGGTTGA [2d19] | 0.702
ATCACTTGTCGTAAGACACTTTGATGGTTGA [3d263] | 0.0782
ATCACTTGTCGTAAGACACTTTGGAGGGTTA [3d271] | 0.0188

Sequence | fraction ligated
ATCACTTGTCGTAAGACACTTTGGAGGGTTG [3d272] | 0.094
ATCACTTGTCGTAAGACACTTTGGAGGGTTGA [2d21] | 0.189
ATCACTTGTCGTAAGACACTTTGGAGGTTGA [3d270] | 0.0103
ATCACTTGTCGTAAGACACTTTGGATGGGTT [3d275] | 0.392
ATCACTTGTCGTAAGACACTTTGGATGGGTTA [2d23] | 0.747
ATCACTTGTCGTAAGACACTTTGGATGGGTTG [2d24] | 0.769
ATCACTTGTCGTAAGACACTTTGGATGGGTTGA [1d1] | 0.781
ATCACTTGTCGTAAGACACTTTGGATGGTTA [3d273] | 0.68
ATCACTTGTCGTAAGACACTTTGGATGGTTG [3d274] | 0.691
ATCACTTGTCGTAAGACACTTTGGATGGTTGA [2d22] | 0.76
ATCACTTGTCGTAAGACACTTTGGATGTGGTTGA [s38] | 0.693
ATCACTTGTCGTAAGACACTTTGGGGGTTGA [3d266] | 0.0143
ATCACTTGTCGTAAGACACTTTGGTGGGTTA [3d268] | 0.00829
ATCACTTGTCGTAAGACACTTTGGTGGGTTG [3d269] | 0.0136
ATCACTTGTCGTAAGACACTTTGGTGGGTTGA [2d20] | 0.0391
ATCACTTGTCGTAAGACACTTTGGTGGTTGA [3d267] | 0.0134
ATCACTTGTCGTAAGACACTTTGTGGGTTGA [3d261] | 0.0128
ATCACTTGTCGTAAGACATTGGATGGGTTGA [3d246] | 0.739
ATCACTTGTCGTAAGACATTTGATGGGTTGA [3d247] | 0.0818
ATCACTTGTCGTAAGACATTTGGAGGGTTGA [3d249] | 0.0168
ATCACTTGTCGTAAGACATTTGGATGGGTTA [3d251] | 0.66
ATCACTTGTCGTAAGACATTTGGATGGGTTG [3d252] | 0.739

Sequence | fraction ligated
ATCACTTGTCGTAAGACATTTGGATGGGTTGA [2d17] | 0.78
ATCACTTGTCGTAAGACATTTGGATGGTTGA [3d250] | 0.445
ATCACTTGTCGTAAGACATTTGGTGGGTTGA [3d248] | 0.00393
ATCACTTGTCGTAAGACCTTGGATGGGTTGA [3d239] | 0.716
ATCACTTGTCGTAAGACCTTTGATGGGTTGA [3d240] | 0.311
ATCACTTGTCGTAAGACCTTTGGAGGGTTGA [3d242] | 0.04
ATCACTTGTCGTAAGACCTTTGGATGGGTTA [3d244] | 0.645
ATCACTTGTCGTAAGACCTTTGGATGGGTTG [3d245] | 0.706
ATCACTTGTCGTAAGACCTTTGGATGGGTTGA [2d16] | 0.741
ATCACTTGTCGTAAGACCTTTGGATGGTTGA [3d243] | 0.712
ATCACTTGTCGTAAGACCTTTGGTGGGTTGA [3d241] | 0.0169
ATCACTTGTCGTAAGACTTTGGATGGGTTGA [3d221] | 0.727
ATCACTTGTCGTAAGCACTTGGATGGGTTGA [3d224] | 0.716
ATCACTTGTCGTAAGCACTTTGATGGGTTGA [3d225] | 0.393
ATCACTTGTCGTAAGCACTTTGGAGGGTTGA [3d227] | 0.0599
ATCACTTGTCGTAAGCACTTTGGATGGGTTA [3d229] | 0.34
ATCACTTGTCGTAAGCACTTTGGATGGGTTG [3d230] | 0.731
ATCACTTGTCGTAAGCACTTTGGATGGGTTGA [2d14] | 0.782
ATCACTTGTCGTAAGCACTTTGGATGGTTGA [3d228] | 0.195
ATCACTTGTCGTAAGCACTTTGGTGGGTTGA [3d226] | 0.0296
ATCACTTGTCGTAAGCATTTGGATGGGTTGA [3d223] | 0.731
ATCACTTGTCGTAAGCCTTTGGATGGGTTGA [3d222] | 0.744

Sequence | fraction ligated
ATCACTTGTCGTAGAACTTTGGATGGGTTGA [3d201] | 0.867
ATCACTTGTCGTAGACACTTGGATGGGTTGA [3d204] | 0.74
ATCACTTGTCGTAGACACTTTGATGGGTTGA [3d205] | 0.715
ATCACTTGTCGTAGACACTTTGGAGGGTTGA [3d207] | 0.211
ATCACTTGTCGTAGACACTTTGGATGGGTTA [3d209] | 0.728
ATCACTTGTCGTAGACACTTTGGATGGGTTG [3d210] | 0.782
ATCACTTGTCGTAGACACTTTGGATGGGTTGA [2d12] | 0.789
ATCACTTGTCGTAGACACTTTGGATGGTTGA [3d208] | 0.766
ATCACTTGTCGTAGACACTTTGGTGGGTTGA [3d206] | 0.0928
ATCACTTGTCGTAGACATTTGGATGGGTTGA [3d203] | 0.731
ATCACTTGTCGTAGACCTTTGGATGGGTTGA [3d202] | 0.767
ATCACTTGTCGTAGCACTTTGGATGGGTTGA [3d200] | 0.749
ATCACTTGTCGTGACACTTTGGATGGGTTGA [3d198] | 0.746
ATCACTTGTCTAAACACTTTGGATGGGTTGA [3d173] | 0.77
ATCACTTGTCTAAGAACTTTGGATGGGTTGA [3d175] | 0.728
ATCACTTGTCTAAGACACTTGGATGGGTTGA [3d178] | 0.73
ATCACTTGTCTAAGACACTTTGATGGGTTGA [3d179] | 0.594
ATCACTTGTCTAAGACACTTTGGAGGGTTGA [3d181] | 0.155
ATCACTTGTCTAAGACACTTTGGATGGGTTA [3d183] | 0.656
ATCACTTGTCTAAGACACTTTGGATGGGTTG [3d184] | 0.762
ATCACTTGTCTAAGACACTTTGGATGGGTTGA [2d10] | 0.765
ATCACTTGTCTAAGACACTTTGGATGGTTGA [3d182] | 0.676

Sequence | fraction ligated
ATCACTTGTCTAAGACACTTTGGTGGGTTGA [3d180] | 0.0503
ATCACTTGTCTAAGACATTTGGATGGGTTGA [3d177] | 0.756
ATCACTTGTCTAAGACCTTTGGATGGGTTGA [3d176] | 0.717
ATCACTTGTCTAAGCACTTTGGATGGGTTGA [3d174] | 0.733
ATCACTTGTCTAGACACTTTGGATGGGTTGA [3d172] | 0.734
ATCACTTGTGAAGACACTTTGGATGGGTTGA [3d157] | 0.815
ATCACTTGTGTAAACACTTTGGATGGGTTGA [3d159] | 0.837
ATCACTTGTGTAAGAACTTTGGATGGGTTGA [3d161] | 0.88
ATCACTTGTGTAAGACACTTGGATGGGTTGA [3d164] | 0.719
ATCACTTGTGTAAGACACTTTGATGGGTTGA [3d165] | 0.453
ATCACTTGTGTAAGACACTTTGGAGGGTTGA [3d167] | 0.116
ATCACTTGTGTAAGACACTTTGGATGGGTTA [3d169] | 0.598
ATCACTTGTGTAAGACACTTTGGATGGGTTG [3d170] | 0.838
ATCACTTGTGTAAGACACTTTGGATGGGTTGA [2d9] | 0.853
ATCACTTGTGTAAGACACTTTGGATGGTTGA [3d168] | 0.45
ATCACTTGTGTAAGACACTTTGGTGGGTTGA [3d166] | 0.0152
ATCACTTGTGTAAGACATTTGGATGGGTTGA [3d163] | 0.798
ATCACTTGTGTAAGACCTTTGGATGGGTTGA [3d162] | 0.811
ATCACTTGTGTAAGCACTTTGGATGGGTTGA [3d160] | 0.854
ATCACTTGTGTAGACACTTTGGATGGGTTGA [3d158] | 0.864
ATCACTTGTTAAGACACTTTGGATGGGTTGA [3d156] | 0.787
